From the supplement of paper PMC9732359
± gives the uncertainty stated by the source.

Assay: protein stability index of a GFP-peptide fusion (yeast GPS) (PSI 1-4); higher = more stable; sorted into four equal gates, so the index is relative within each strain
Summary of the method: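 Peptides tiling yeast proteins in 17-residue segments were fused downstream of GFP, with Cherry expressed from the same plasmid. As a pooled library in yeast, mid-log cultures grown in leucine-free medium were sorted into four equal gates by GFP/Cherry fluorescence ratio. Gate plasmids were PCR-amplified and Illumina-sequenced, and barcodes linked reads to strains. Each peptide received a protein stability index equal to the sum of each gate's read frequency times its gate number.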

Sequence | protein stability index (ubr1∆) | protein stability index (doa10∆) | protein stability index (pdr5∆) | protein stability index (san1∆)
RMNTIITHPGKMELVYV [SIR4] | 1.21 ± 0.24 | – | – | –
IKAFMDSTIGNSKVDMK [IRR1] | 2.05 ± 0.19 | 2.57 ± 0.27 | 2.45 ± 0.16 | –
FICTTFRTDMLQVADKF [SMC3] | 1.67 ± 0.075 | 1.38 ± 0.086 | 2.31 ± 0.12 | 1.6 ± 0.089
YLHDNASKVLLKIFLYL [IRR1] | 1.77 ± 0.053 | 1.92 ± 0.099 | 1.64 ± 0.075 | 1.42 ± 0.093
AIALAVRLGEEDMIRSV [RPN1] | 3.39 ± 0.14 | 3.42 ± 0.14 | 3.4 ± 0.13 | 3.39 ± 0.1
NRQQKKRRFDPSSSDSN [RRP6] | 3.19 ± 0.067 | 2.77 ± 0.056 | 2.69 ± 0.078 | 3.05 ± 0.053
KERLVRDKKEKKQAQKQ [SMB1] | 3.3 ± 0.086 | 3.25 ± 0.097 | 3.21 ± 0.086 | 2.82 ± 0.14
HEDLVNSIESKNLSLQT [COR1] | 2.97 ± 0.073 | 2.96 ± 0.087 | 2.96 ± 0.074 | 3.09 ± 0.083
RTPVIISLRNNHKIIAR [SMD2] | 1.81 ± 0.044 | 1.77 ± 0.042 | 1.97 ± 0.035 | 2.13 ± 0.06
KQLVEKAELRLAIADSP [ECM29] | 3.29 ± 0.16 | – | 3.38 ± 0.29 | –
FDSLRNFIVHSPMLKRI [GRR1] | 2.64 ± 0.076 | 2.89 ± 0.084 | 2.47 ± 0.079 | 2.8 ± 0.074
MDKKILLNINGSRKVAG [SMX2] | 2.11 ± 0.047 | 1.57 ± 0.06 | 1.84 ± 0.066 | 1.81 ± 0.09
NENNNNSSEKNNNNNNN [MED2] | 2.95 ± 0.07 | 2.91 ± 0.066 | 2.96 ± 0.065 | 3.04 ± 0.071
LVAKFLYPIFLLDDKKL [YJR042W/NUP85] | 1.26 ± 0.027 | 1.49 ± 0.034 | 1.29 ± 0.033 | 1.16 ± 0.073
IRSERFKVARELKTEAA [ITC1] | – | – | 2.25 ± 0.25 | –
DFIDTATRHVLMRQGVL [RPS3] | 2.98 ± 0.04 | 3.24 ± 0.055 | 3.06 ± 0.059 | 3.38 ± 0.054
YVEAQHKLVFVVRIKGI [RPL7A] | 1.21 ± 0.053 | 1.09 ± 0.058 | 1.19 ± 0.054 | 1.25 ± 0.094
GRYAGKKVVIVKPHDEG [RPL27A] | 2.29 ± 0.26 | 3.25 ± 0.25 | 2.72 ± 0.21 | –
KMSVTCNAQPITRSVMR [BRR2] | 2.5 ± 0.037 | 2.47 ± 0.06 | 2.67 ± 0.057 | 2.72 ± 0.056
SAIEHTTLKSVTIASEI [RPO21] | 2.16 ± 0.045 | 2.54 ± 0.085 | 2.39 ± 0.077 | 2.57 ± 0.078
GFIDASCIAVMAGLMHF [RRP45] | 1.46 ± 0.031 | 1.48 ± 0.041 | 1.55 ± 0.04 | 1.85 ± 0.082
DLKAQFQELDSKKQRNN [RPN9] | 3.33 ± 0.052 | 3.21 ± 0.088 | 3.2 ± 0.08 | 3.09 ± 0.078
TTVPFKESDDPSIPLVI [POP1] | 2.89 ± 0.077 | 2.8 ± 0.068 | 3.01 ± 0.069 | 2.87 ± 0.054
DEPDEQGNPKKRPGKLS [CYT1] | 3.44 ± 0.089 | – | 3.45 ± 0.15 | 3.24 ± 0.16
VLKVDKRFMNTSQNPQR [BRR2] | 2.99 ± 0.04 | 3 ± 0.056 | 3.2 ± 0.06 | 3.21 ± 0.069
FVNETPRVIEPVYTAQW [PRP8] | 1.19 ± 0.1 | 1.57 ± 0.16 | 2.31 ± 0.15 | 2.19 ± 0.16

Sequence | protein stability index (ubr1∆) | protein stability index (doa10∆) | protein stability index (pdr5∆) | protein stability index (san1∆)
EIQEELERFNKRADISK [SMC1] | 3.23 ± 0.18 | – | – | –
NSTSKNTLLQQQNYSKV [SWI1] | 2.68 ± 0.06 | 2.33 ± 0.067 | 2.86 ± 0.12 | 2.08 ± 0.078
KNTEEGKALVHHYEECA [QCR6] | 3.38 ± 0.052 | 3.37 ± 0.067 | 3.29 ± 0.072 | 3.5 ± 0.051
GRRLNIRQYALATAHIY [SSN8] | 1.09 ± 0.067 | 1.53 ± 0.055 | 1.32 ± 0.057 | 1.17 ± 0.17
FKGTDFVHSVKKFLRVR [SRB4] | 2.87 ± 0.054 | 2.66 ± 0.077 | 2.64 ± 0.066 | 2.83 ± 0.058
AHSLSPKDYIKKLLEVH [CDC53] | 1.77 ± 0.042 | 1.7 ± 0.042 | 2.23 ± 0.064 | 2.56 ± 0.056
SETPLQKTVNLKNIMKV [RPN4] | 2.48 ± 0.043 | 2.25 ± 0.08 | 2.6 ± 0.085 | 2.56 ± 0.11
AFNRFMAESLVDLEEVM [SSN8] | 1.62 ± 0.059 | 1.57 ± 0.068 | 2.4 ± 0.078 | 2.36 ± 0.17
KAGGECITLDQLAVRAP [RPL18A] | 2.57 ± 0.077 | 2.1 ± 0.097 | 2.29 ± 0.085 | 2.86 ± 0.072
PELAMALRLSMEEEQQR [RPN10] | 3.14 ± 0.08 | 3.15 ± 0.14 | 3.09 ± 0.061 | –
ESDETTTDNNNSGNSNS [RPT1] | 3.13 ± 0.051 | 3.12 ± 0.094 | 3.11 ± 0.098 | 2.66 ± 0.22
EKAIPKDQRATTPYMTK [RPO26] | 3.03 ± 0.044 | 2.85 ± 0.043 | 2.98 ± 0.047 | 2.97 ± 0.046
GKLISNLSSTPMETLLS [YML031W/NDC1] | 2.5 ± 0.063 | 2.61 ± 0.11 | 2.92 ± 0.12 | 2.51 ± 0.11
LAAERKVTSTLLEQDTS [PRE9] | 2.36 ± 0.089 | 2.46 ± 0.066 | 2.58 ± 0.082 | 2.65 ± 0.082
AEKLVPLPICHANSVVA [YML031W/NDC1] | 1.42 ± 0.16 | 1.68 ± 0.2 | 1.34 ± 0.091 | 1.61 ± 0.2
AEHKYMPYTINELLEMV [BRR2] | 2.65 ± 0.043 | 2.92 ± 0.083 | 3.04 ± 0.092 | 2.53 ± 0.068
SEQKMKEDADLKRMEIL [SIR4] | 3.28 ± 0.073 | 2.99 ± 0.066 | 3.34 ± 0.11 | 3.49 ± 0.059
LSNIPLLLITHHSWSQS [ARP9] | 1.96 ± 0.047 | 2.25 ± 0.075 | 1.6 ± 0.045 | 1.51 ± 0.073
DNLFGETESSVSNNEAN [SWI3] | 2.89 ± 0.083 | 3.55 ± 0.16 | 2.92 ± 0.089 | –
VISMFVLPIFTTVFFSR [YML031W/NDC1] | 1.16 ± 0.057 | 1.38 ± 0.046 | 1.16 ± 0.065 | 1.17 ± 0.11
ARQRGKLKKSEEKVLST [SRP68] | 3.67 ± 0.21 | 3.28 ± 0.19 | 3.21 ± 0.11 | 3.33 ± 0.071
KAANFIQNQSPQFNSPY [SWI1] | 2.42 ± 0.058 | 1.99 ± 0.061 | 1.71 ± 0.046 | 2.37 ± 0.065
QNQGGAQAPFDIDDLAF [ROX3] | 3.37 ± 0.065 | 3.55 ± 0.13 | – | 3.4 ± 0.11
EEISRLQRDLIQTKEQV [YIL149C/MLP2] | 3.11 ± 0.082 | 2.77 ± 0.095 | 2.98 ± 0.15 | 3.13 ± 0.14
TAAQVANVELTPSNIRS [RPC34] | 2.87 ± 0.093 | 2.79 ± 0.1 | 2.82 ± 0.071 | 2.8 ± 0.085
LVSNPHEIYGSMPLEQL [SRB4] | 1.89 ± 0.1 | 3.01 ± 0.12 | 2.26 ± 0.065 | 3.1 ± 0.19

Sequence | protein stability index (ubr1∆) | protein stability index (doa10∆) | protein stability index (pdr5∆) | protein stability index (san1∆)
PGHSLLLSIKLPGKVNT [SNF5] | 2.29 ± 0.04 | 2.37 ± 0.059 | 1.77 ± 0.039 | 2.08 ± 0.058
TKSSKEFFNTLRKSRET [RRI2] | 2.92 ± 0.11 | 2.63 ± 0.15 | 3.42 ± 0.13 | 3.06 ± 0.074
GYRSRTRYMFQRDFRKH [RPL21A] | 3.3 ± 0.049 | 3.16 ± 0.07 | 3.19 ± 0.08 | 3.16 ± 0.049
INLTQTYGISVVDVALK [NUT1] | 2.55 ± 0.038 | 2.24 ± 0.077 | 1.91 ± 0.054 | 1.76 ± 0.1
EPIRFLPNQFPLKIHRT [SWI1] | 1.73 ± 0.07 | 1.66 ± 0.06 | 1.81 ± 0.075 | 1.59 ± 0.12
FLDSQRVWAEYATKRQE [PRP8] | 2.07 ± 0.083 | 1.54 ± 0.078 | 2 ± 0.07 | 1.92 ± 0.097
VTYSDVGGCKDQIEKLR [RPT1] | 3.39 ± 0.12 | 3.51 ± 0.16 | 3.67 ± 0.2 | 2.92 ± 0.25
MSSVQSKILSQAPSELE [RPS7B] | 2.04 ± 0.1 | 2.58 ± 0.08 | 2.72 ± 0.083 | 2.61 ± 0.098
VRMRLAQLTHSLRRIRD [MED8] | 1.91 ± 0.049 | 1.45 ± 0.041 | 2.04 ± 0.063 | 1.49 ± 0.087
TMGGNAELELVDSLDPF [SMC4] | 3.15 ± 0.084 | 3.25 ± 0.1 | 3.17 ± 0.086 | 3.39 ± 0.074
DRINYTETALMNLKKEL [SRB5] | 3.18 ± 0.095 | 3.14 ± 0.14 | 3.28 ± 0.16 | 3.41 ± 0.088
DIFSNLSSDDLLGKESF [YCS4] | 2.86 ± 0.034 | 2.87 ± 0.05 | 2.24 ± 0.05 | 2.95 ± 0.044
AEASFTFGTKHAADSQN [YLR335W/NUP2] | 2.67 ± 0.091 | 3.27 ± 0.14 | 3.01 ± 0.13 | 3.03 ± 0.092
ARWPAKSVKFVQGLLQN [RPL17A] | 2.13 ± 0.073 | 2.35 ± 0.097 | 2.17 ± 0.083 | 1.89 ± 0.088
ADVYAKALEGKDLKEIL [RPP1B] | 3.36 ± 0.2 | 3.45 ± 0.22 | – | 3.51 ± 0.14
HGDAAVLLVEKYGAEYD [NAS6] | 3.04 ± 0.19 | 1.94 ± 0.21 | – | 2.96 ± 0.22
VKFYEIFNFDQLVEITE [SRB8] | 1.37 ± 0.058 | 1.24 ± 0.11 | 1.35 ± 0.088 | 1.58 ± 0.14
NNIEENLRLLNSIDSTS [ECM29] | 3.21 ± 0.046 | 3.21 ± 0.06 | 3.33 ± 0.057 | 3.18 ± 0.044
NCVNDVLEFCKDYEAKT [POP1] | 3.32 ± 0.051 | 3.2 ± 0.075 | 3.45 ± 0.083 | 3.14 ± 0.072
SKVTVPPSKHSTLTLSD [ESC2] | 3.1 ± 0.098 | 3.29 ± 0.12 | 3.09 ± 0.13 | 2.9 ± 0.071
EQENMRKVREQEELKKR [MED2] | 3.56 ± 0.11 | – | 3.13 ± 0.19 | –
GNKKYRALRIETGNFSW [RPS8A] | 2.85 ± 0.03 | 2.87 ± 0.038 | 3.15 ± 0.044 | 3.14 ± 0.036
PVYATIGVETGSEPLIQ [PRP28] | 2.86 ± 0.12 | 2.84 ± 0.066 | 3.1 ± 0.076 | 2.92 ± 0.064
LQQAKLRESEISQKLTN [SMC3] | 2.97 ± 0.069 | 3.18 ± 0.076 | 3.17 ± 0.073 | 3.15 ± 0.087
EEEYDETHETNISNAKL [YAR002W/NUP60] | 3.31 ± 0.065 | 3.35 ± 0.073 | 3.21 ± 0.09 | 3.44 ± 0.087
FNYQGDELVLNFENDNE [REC8] | 2.63 ± 0.068 | 2.9 ± 0.18 | 3.25 ± 0.17 | 2.79 ± 0.11
